Test results: patent publication US20140186359A1 (TORAY INDUSTRIES, published 2014)

T1: human CAPRIN-1 expressed on the surface of human cancer cells (human, UniProt Q14444 2-709)
T1 sequence: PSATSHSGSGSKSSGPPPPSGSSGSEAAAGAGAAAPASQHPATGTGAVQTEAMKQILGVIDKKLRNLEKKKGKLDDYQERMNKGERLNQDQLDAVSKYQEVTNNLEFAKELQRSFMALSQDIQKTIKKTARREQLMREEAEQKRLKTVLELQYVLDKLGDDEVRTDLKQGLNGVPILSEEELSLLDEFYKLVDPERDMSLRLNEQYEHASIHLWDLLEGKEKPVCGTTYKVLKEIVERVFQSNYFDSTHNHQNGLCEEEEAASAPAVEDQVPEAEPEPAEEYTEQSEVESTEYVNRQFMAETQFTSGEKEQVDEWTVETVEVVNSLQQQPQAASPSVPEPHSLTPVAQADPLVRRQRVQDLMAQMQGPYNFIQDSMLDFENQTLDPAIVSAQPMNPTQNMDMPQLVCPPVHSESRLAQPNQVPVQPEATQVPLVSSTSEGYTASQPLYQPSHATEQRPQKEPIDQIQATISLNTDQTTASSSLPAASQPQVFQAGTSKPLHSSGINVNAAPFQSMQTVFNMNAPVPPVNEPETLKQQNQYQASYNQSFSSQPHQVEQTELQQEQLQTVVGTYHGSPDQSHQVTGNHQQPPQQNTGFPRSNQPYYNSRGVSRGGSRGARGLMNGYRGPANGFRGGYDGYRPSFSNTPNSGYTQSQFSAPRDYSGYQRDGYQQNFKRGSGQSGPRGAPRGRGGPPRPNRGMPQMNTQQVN


target: T1, human CAPRIN-1 expressed on the surface …; assay: cell-based or functional assay
Wherever ADCC cytotoxic activity (51Cr release) against A549 is given: test concentration or dose not given here.
Wherever ADCC cytotoxic activity (51Cr release) against Caki-1 is given: test concentration or dose not given here.
Wherever ADCC cytotoxic activity (51Cr release) against Caki-2 is given: test concentration or dose not given here.
Wherever ADCC cytotoxic activity (51Cr release) against DLD-1 is given: test concentration or dose not given here.
Wherever ADCC cytotoxic activity (51Cr release) against HCT-116 is given: test concentration or dose not given here.
Wherever ADCC cytotoxic activity (51Cr release) against MCF7 is given: test concentration or dose not given here.
Wherever ADCC cytotoxic activity (51Cr release) against MDA-MB-436 is given: test concentration or dose not given here.
Wherever ADCC cytotoxic activity (51Cr release) against MIAPaCa-2 is given: test concentration or dose not given here.
Wherever ADCC cytotoxic activity (51Cr release) against Panc-1 is given: test concentration or dose not given here.
Wherever ADCC cytotoxic activity (51Cr release) against QG56 is given: test concentration or dose not given here.

| Binder | ADCC cytotoxic activity (51Cr release) against A549 [%] | ADCC cytotoxic activity (51Cr release) against Caki-1 [%] | ADCC cytotoxic activity (51Cr release) against Caki-2 [%] | ADCC cytotoxic activity (51Cr release) against DLD-1 [%] | ADCC cytotoxic activity (51Cr release) against HCT-116 [%] | ADCC cytotoxic activity (51Cr release) against MCF7 [%] | ADCC cytotoxic activity (51Cr release) against MDA-MB-436 [%] | ADCC cytotoxic activity (51Cr release) against MIAPaCa-2 [%] | ADCC cytotoxic activity (51Cr release) against Panc-1 [%] | ADCC cytotoxic activity (51Cr release) against QG56 [%] |
| --- | --- | --- | --- | --- | --- | --- | --- | --- | --- | --- |
| human-chicken chimeric monoclonal antibody #1 (antibody, V domains shown) VH: AVTLDESGGGLQTPGGALSLVCKASGFTFRSHSMFWVRQAPGKGLEYVAGIYGVGRSIRYGSAVKGRATMSRDNGQSTVRLQLNNLRAEDTATYYCAKSGYFSNSRYWDSGAYFIDAWGHGTEVIVS VL: ALTQPASVSANPGETVEITCSGGYSNYGWYQQKSPGSAPVTVIYYNDKRPSDIPSRFSGSKSGSTATLTITGVQAEDEAVYFCGGYDSSTDAGIFGAGTTLTV | ≥ 12 | ≥ 14 | ≥ 34 | ≥ 15 | ≥ 19 | ≥ 30 | ≥ 18 | ≥ 28 | ≥ 18 | ≥ 10 |
| human-chicken chimeric monoclonal antibody #2 (antibody, V domains shown) VH: AVTLDESGGGLQTPGGALSLVCKASGFTFRSHSMFWVRQAPGKGLEYVAGIYGVGRSIRYGSAVKGRATMSRDNGQSTVRLQLNNLRAEDTGTYYCAKSGYFSNRRYWDSGAYFIDAWGHGTEVIVS VL: ALTQPASVSANLGGTVEITCSGGYSNYGWYQQKSPGSAPVTVIYYNDKRPSDIPSRFSGSKSGSTGTLTITGVRAEDEAVYYCGGYDSSTDAGIFGAGTTLTV | ≥ 12 | ≥ 14 | ≥ 34 | ≥ 15 | ≥ 19 | ≥ 30 | ≥ 18 | ≥ 28 | ≥ 18 | ≥ 10 |
| human-mouse chimeric comparative monoclonal antibody 3 (antibody, human IgG1, kappa) heavy: not shown light: RTTSHMDSDIQLTQSPASLSASVGETVTITCRASGNIHNYLAWYQQKQGKSPQLLVYNAKTLADGVPSRFSGSGSGTQYSLKINSLQPEDFGSYYCQHFWSTLTFGGGTKLEIKQSDTVAAPSVFIFPPSDEQLKSGTASVVCLLNNFYPREAKVQWKVDNALQSGNSQESVTEQDSKDSTYSLSSTLTLSKADYEKHKVYACEVTHQGLSSPVTKSFNRGEC |  |  | < 8 |  | < 3 | < 5 |  | 7 |  | < 5 |
| human-chicken chimeric monoclonal antibody #4 (antibody, V domains shown) VH: AVTLDESGGGLQTPGGAVSLVCKGSGFTFSSYGMGWVRQAPGKGLEYVAAIRKDGSTNYGPAVKGRATISRDNGQSTVRLQLSNLRAEDTATYYCAKRSHTGVNAAKIDAWGRGTEVIVS VL: ALTQPASVSANPGETVKITCSGASHNYGWFQQKSPGSAPVTVIYSNDKRPSDIPSRFSGSKSGSTATLTITGVQADDEAVYFCGGYNIYGPTFGAGTTLTV | ≥ 12 | ≥ 14 | ≥ 34 | ≥ 15 | ≥ 19 | ≥ 30 | ≥ 18 | ≥ 28 | ≥ 18 | ≥ 10 |
| human-mouse chimeric comparative monoclonal antibody 4 (antibody, human IgG1, kappa, V domains shown) VH: EVQLHQFGAELVKPGASVKISCKASGYTFTDYNMDWVKQSHGKSLEWIGDINPNYDSTSYNQKFKGKATLTVDKSSSTAYMELRSLTSEDTAVYYCARSRSYDYEGFAYWGQGTLVTVSA VL: SGDRVSLSCRASQSISNYLHWYQQKSHESPRLLIKYASQSISGIPSRFSGSGSGTDFTLSINSVETEDFGMYFCQQSNSWPYTFGAGTKLEIKQ |  |  | < 8 |  | < 3 | < 5 |  | 7 |  | < 5 |
| human-mouse chimeric monoclonal antibody #2 (antibody, human IgG1, kappa, V domains shown) VH: GGGLVKPGGSLKLSCAASGFTFSSYGMSWVRQTPEKRLEWVATISSGGSYTYYPDSVKGRFTISRDNAKNTLYLQMSSLRSEDTAMYYCASLASYYFDYWGQGTTLTVSS VL: GARCDVQMIQSPSSLSASLGDIVTMTCQASQGTSINLNWFQQKPGKAPKLLIYGASSLEDGVPSRFSGSCFGTDFTLTISSLEDEDMATYFCLQHSYLPPLTFGAGTKLELKR |  |  | ≥ 18 |  | ≥ 18 | ≥ 32 |  | ≥ 32 |  | ≥ 10 |

same assay, conditions: not given

| Binder | ADCC cytotoxic activity (51Cr release) against all other cancer cell lines listed [%] |
| --- | --- |
| human-chicken chimeric monoclonal antibody #1 (antibody, V domains shown) VH: AVTLDESGGGLQTPGGALSLVCKASGFTFRSHSMFWVRQAPGKGLEYVAGIYGVGRSIRYGSAVKGRATMSRDNGQSTVRLQLNNLRAEDTATYYCAKSGYFSNSRYWDSGAYFIDAWGHGTEVIVS VL: ALTQPASVSANPGETVEITCSGGYSNYGWYQQKSPGSAPVTVIYYNDKRPSDIPSRFSGSKSGSTATLTITGVQAEDEAVYFCGGYDSSTDAGIFGAGTTLTV | ≥ 10 |
| human-chicken chimeric monoclonal antibody #2 (antibody, V domains shown) VH: AVTLDESGGGLQTPGGALSLVCKASGFTFRSHSMFWVRQAPGKGLEYVAGIYGVGRSIRYGSAVKGRATMSRDNGQSTVRLQLNNLRAEDTGTYYCAKSGYFSNRRYWDSGAYFIDAWGHGTEVIVS VL: ALTQPASVSANLGGTVEITCSGGYSNYGWYQQKSPGSAPVTVIYYNDKRPSDIPSRFSGSKSGSTGTLTITGVRAEDEAVYYCGGYDSSTDAGIFGAGTTLTV | ≥ 10 |
| human-mouse chimeric comparative monoclonal antibody 3 (antibody, human IgG1, kappa) heavy: not shown light: RTTSHMDSDIQLTQSPASLSASVGETVTITCRASGNIHNYLAWYQQKQGKSPQLLVYNAKTLADGVPSRFSGSGSGTQYSLKINSLQPEDFGSYYCQHFWSTLTFGGGTKLEIKQSDTVAAPSVFIFPPSDEQLKSGTASVVCLLNNFYPREAKVQWKVDNALQSGNSQESVTEQDSKDSTYSLSSTLTLSKADYEKHKVYACEVTHQGLSSPVTKSFNRGEC | < 4 |
| human-chicken chimeric monoclonal antibody #4 (antibody, V domains shown) VH: AVTLDESGGGLQTPGGAVSLVCKGSGFTFSSYGMGWVRQAPGKGLEYVAAIRKDGSTNYGPAVKGRATISRDNGQSTVRLQLSNLRAEDTATYYCAKRSHTGVNAAKIDAWGRGTEVIVS VL: ALTQPASVSANPGETVKITCSGASHNYGWFQQKSPGSAPVTVIYSNDKRPSDIPSRFSGSKSGSTATLTITGVQADDEAVYFCGGYNIYGPTFGAGTTLTV | ≥ 10 |
| human-mouse chimeric comparative monoclonal antibody 4 (antibody, human IgG1, kappa, V domains shown) VH: EVQLHQFGAELVKPGASVKISCKASGYTFTDYNMDWVKQSHGKSLEWIGDINPNYDSTSYNQKFKGKATLTVDKSSSTAYMELRSLTSEDTAVYYCARSRSYDYEGFAYWGQGTLVTVSA VL: SGDRVSLSCRASQSISNYLHWYQQKSHESPRLLIKYASQSISGIPSRFSGSGSGTDFTLSINSVETEDFGMYFCQQSNSWPYTFGAGTKLEIKQ | < 4 |
| human-mouse chimeric monoclonal antibody #2 (antibody, human IgG1, kappa, V domains shown) VH: GGGLVKPGGSLKLSCAASGFTFSSYGMSWVRQTPEKRLEWVATISSGGSYTYYPDSVKGRFTISRDNAKNTLYLQMSSLRSEDTAMYYCASLASYYFDYWGQGTTLTVSS VL: GARCDVQMIQSPSSLSASLGDIVTMTCQASQGTSINLNWFQQKPGKAPKLLIYGASSLEDGVPSRFSGSCFGTDFTLTISSLEDEDMATYFCLQHSYLPPLTFGAGTKLELKR | ≥ 10 |
